Patent CN117069831A (SHENZHEN BGI LIFE SCIENCE RES INSTITUTE, dated 2023)
Substitutions are numbered along the chain they refer to.

B1: R-30 (VHH)
VHH: QVQLQESGGGLVQSGGSLRLSCTASGGIIRLNSMGWYRQAPGKQREPVATIVSDVGTNYADSVKGRFTISRDNAKNTIYLQMNSLKFEDTAVYYCVADRAFVLRGEYEYWGQGTQVTVSS
notes: also called 第一株RBD纳米抗体R-30
B2: S1-24 (VHH)
VHH: B1 VHH with T23A, I28V, I29S, P41Q, P47L, S53N, K75A, I78V, Q81L, Y94N
notes: also called 第四株RBD纳米抗体S1-24
B3: S1-28 (VHH)
VHH: B1 VHH with S14P, L85P
notes: also called 第二株RBD纳米抗体S1-28
B4: S1-51 (VHH)
VHH: B1 VHH with T23A, I28V, I29S, P47L, V52I, K75A, I78V
notes: also called 第三株RBD纳米抗体S1-51

Target: T1, SARS-CoV-2 南非beta突变型S1抗原 (SARS-CoV-2 beta variant, UniProt P0DTC2 16-685)
T1 construct: domain: S1; also called beta突变体抗原; beta变异突变株
Test: SPR, Biacore T200, antigen coupled to CM5 chip, nanobody as analyte

Binder	Kd
B1	~0.1 nM
B2	~0.1 nM
B3	~0.1 nM
B4	~0.1 nM

Target: T2, SARS-CoV-2 印度delta突变型S1抗原 (SARS-CoV-2 delta variant, UniProt P0DTC2 16-685)
T2 construct: domain: S1; also called delta突变体抗原; delta变异突变株
Test: as above

Binder	Kd
B1	~0.1 nM
B2	~0.1 nM
B3	~0.1 nM
B4	~0.1 nM
